# Numbering of substitutions follows the chain as printed. Names may count otherwise.
# B1: NEDD1 fragment (residues 549–660) (domain or fragment, human, UniProt Q8NHV4 549-660, looked up)
# chain: STPNPKIASSVTAGVASSLSEKIADSIGNNRQNAPLTSIQIRFIQNMIQETLDDFREACHRDIVNLQVEMIKQFHMQLNEMHSLLERYSVNEGLVAEIERLREENKRLRAHF
# notes: NEDD1, human, residues 549-660; predicted mass 12.8 kDa; also called additional fragment of NEDD1 that included residues 549–660
# B2: NEDD1 CTD L642Q, GST removed (domain or fragment, human, UniProt Q8NHV4 572-660, looked up)
# chain: ADSIGNNRQNAPLTSIQIRFIQNMIQETLDDFREACHRDIVNLQVEMIKQFHMQLNEMHSLLERYSVNEGQVAEIERLREENKRLRAHF
# notes: source: E. coli BL21 star (DE3), purified (glutathione resin, thrombin, SEC)
# B3: NEDD1 CTD (residues 572–660), GST removed (domain or fragment, human, UniProt Q8NHV4 572-660, looked up)
# chain: B2 chain with Q71L
# notes: calculated mass 10.5 kDa; also called NEDD1 CTD WT; purified CTD; source: E. coli BL21 star (DE3), purified (glutathione resin, thrombin, SEC)
# B4: NEDD1 CTD L642Q/L649Q/L656Q (3xLQ), GST removed (domain or fragment, human, UniProt Q8NHV4 572-660, looked up)
# chain: B2 chain with L78Q, L85Q
# notes: also called triple 3×LQ; triple 3xLQ; source: E. coli BL21 star (DE3), purified (glutathione resin, thrombin, SEC)
# B5: NEDD1 CTD Y636A/S637A, GST removed (domain or fragment, human, UniProt Q8NHV4 572-660, looked up)
# chain: B2 chain with Y65A, S66A, Q71L
# notes: also called YS (Y636A/S637A) mutant NEDD1; source: E. coli BL21 star (DE3), purified (glutathione resin, thrombin, SEC)
# Tests used:
# [1] = target: the molecule itself; assay: SEC-MALS; data not shown; single peak not affected by dilution; oligomeric state
# [2] = target: the molecule itself; assay: SEC-MALS; Superdex 200 HR 10/30, 50 mM NaP, 300 mM NaCl, 1 mM DTT, pH 8.0; oligomeric state
Protein,stoichiometry N [1],stoichiometry N [2]
B1,4,–
B2,–,4
B3,–,4
B4,–,4
B5,–,4

# From article PMC2835750, “A Direct Interaction with NEDD1 Regulates γ-Tubulin Recruitment to the Centrosome” (PLoS ONE, 2010)
